Data as given in patent publication US20240360228A1 (BIOLEGEND, published 2024).

Key:
[1] = target: T1, human CCR8 (human, UniProt P51685 1-355); experiment: flow blocking, PBMC CCR8+CD3+; competitor PE-AB5
T1 construct: Native CCR8 on human PBMC (CCR8+ CD3+ or CCR8+ CD4+ lymphocytes); also called chemokine (C-C motif) receptor 8
Procedure: (§1) For blocking studies, 100 μL of the cell suspension were incubated with 10 μg purified isotype control, AB1, AB2, AB3, AB4, AB5, AB8, AB9, AB10, AB11, AB12, AB13, AB14, AB15, and Commercial ABI antibodies, or isotype control, as blocking agents.
(§2) After incubation with the blocking agent, the cells were incubated with 0.25 μg of the indicated PE-conjugated antibody plus anti-human CD4 APC or anti-human CD3 for another 15 minutes in the dark and then washed 2 times with Cell Staining Buffer, and acquired in a FACSCanto II flow cytometer (BD Biosciences); the data was analyzed using FCS Express (De Novo Software); MFI correspond to the CCR8+ CD4+ lymphocytes or CCR8+ CD3+ lymphocytes.
(§3) Percentage original MFI was calculated by dividing the MFI of samples blocked with AB1, AB2, AB3, AB4, AB5, AB6, AB7, AB8, AB9, AB10, AB11, AB12, AB13, AB14, AB15, and Commercial ABI antibodies, by the MFI of samples blocked with the corresponding isotype control. This value was subtracted from 100 to get a blocking percentage. The formula is shown below: […]

[2] = target: T1, human CCR8; experiment: flow blocking, PBMC CCR8+CD3+; competitor PE-AB6
Procedure: as §1, §2, §3

[3] = target: T1, human CCR8; experiment: flow blocking, PBMC CCR8+CD3+; competitor PE-AB7
Procedure: as §1, §2, §3

[4] = target: T1, human CCR8; experiment: flow blocking, PBMC CCR8+CD3+; competitor PE-AB8
Procedure: as §1, §2, §3

[5] = target: T1, human CCR8; experiment: flow blocking, PBMC CCR8+CD4+; competitor PE-AB1
Procedure: as §1, §2, §3

[6] = target: T1, human CCR8; experiment: flow blocking, PBMC CCR8+CD4+; competitor PE-AB2
Procedure: as §1, §2, §3

[7] = target: T1, human CCR8; experiment: flow blocking, PBMC CCR8+CD4+; competitor PE-AB3
Procedure: as §1, §2, §3

[8] = target: T1, human CCR8; experiment: flow blocking, PBMC CCR8+CD4+; competitor PE-AB4
Procedure: as §1, §2, §3

[9] = target: T1, human CCR8; experiment: flow blocking, PBMC CCR8+CD4+; competitor PE-AB5
Procedure: as §1, §2, §3

[10] = target: T1, human CCR8; experiment: flow blocking, PBMC CCR8+CD4+; competitor PE-AB6
Procedure: as §1, §2

[11] = target: T1, human CCR8; experiment: flow blocking, PBMC CCR8+CD3+; competitor PE-433H
Procedure: as §1, §2, §3

[12] = target: T1, human CCR8; experiment: flow blocking, PBMC CCR8+CD3+; competitor PE-AB10
Procedure: as §1, §2, §3

[13] = target: T1, human CCR8; experiment: flow blocking, PBMC CCR8+CD3+; competitor PE-AB11
Procedure: as §1, §2, §3

[14] = target: T1, human CCR8; experiment: flow blocking, PBMC CCR8+CD3+; competitor PE-AB12
Procedure: as §1, §2, §3

[15] = target: T1, human CCR8; experiment: flow blocking, PBMC CCR8+CD3+; competitor PE-AB13
Procedure: as §1, §2, §3

[16] = target: T1, human CCR8; experiment: flow blocking, PBMC CCR8+CD3+; competitor PE-AB14
Procedure: as §1, §2, §3

[17] = target: T1, human CCR8; experiment: flow blocking, PBMC CCR8+CD3+; competitor PE-AB15
Procedure: as §1, §2, §3

[18] = target: T1, human CCR8; experiment: flow blocking, PBMC CCR8+CD4+; competitor PE-433H
Procedure: as §1, §2

[19] = target: T1, human CCR8; experiment: flow blocking, PBMC CCR8+CD4+; competitor PE-AB10
Procedure: as §1, §2, §3

[20] = target: T1, human CCR8; experiment: flow blocking, PBMC CCR8+CD4+; competitor PE-AB11
Procedure: as §1, §2, §3

[21] = target: T1, human CCR8; experiment: flow blocking, PBMC CCR8+CD4+; competitor PE-AB12
Procedure: as §1, §2, §3

[22] = target: T1, human CCR8; experiment: flow blocking, PBMC CCR8+CD4+; competitor PE-AB13
Procedure: as §1, §2

[23] = target: T1, human CCR8; experiment: flow blocking, PBMC CCR8+CD4+; competitor PE-AB14
Procedure: as §1, §2

[24] = target: T1, human CCR8; experiment: flow blocking, PBMC CCR8+CD4+; competitor PE-AB15
Procedure: as §1, §2, §3

[25] = target: T1, human CCR8; experiment: flow blocking, PBMC CCR8+CD3+; competitor PE-L263G8
Procedure: as §1, §2, §3

T1 sequence (P51685 whole entry): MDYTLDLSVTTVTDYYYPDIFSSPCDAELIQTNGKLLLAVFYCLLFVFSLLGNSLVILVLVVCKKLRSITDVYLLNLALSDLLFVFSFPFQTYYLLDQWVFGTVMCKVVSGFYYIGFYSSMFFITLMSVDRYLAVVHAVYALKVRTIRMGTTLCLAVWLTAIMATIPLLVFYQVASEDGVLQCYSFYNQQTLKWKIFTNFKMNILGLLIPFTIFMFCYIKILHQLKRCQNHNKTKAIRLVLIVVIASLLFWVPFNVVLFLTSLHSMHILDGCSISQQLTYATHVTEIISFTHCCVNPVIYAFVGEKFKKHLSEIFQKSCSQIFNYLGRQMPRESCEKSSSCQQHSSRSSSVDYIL

B1: AB8 (antibody, V domains shown)
VH: AVQLVESGGGLVQPKESLKISCAASGFIFSNAAMYWVRQAPGKGLQWVARIRTKPKNYATYYIDSVKGRFTISRDDSKSMVYLQMDNLKTEDTAMYYCNTMGLTRAYYFDYWGQGVMVTVSS
VL: DIQMTQSPSFLSASVGDRVTINCKASQNINRYLNWYQQKLGEAPKLLIYNANSLQTGIPSRFSGSGSGTDFTLTIRSLQPEDVATYFCLQHNSWPWTFGGGTKLELK
notes: Hybridoma monoclonal; also called antibody 8; clone 8
With B1 the “% Blocking” value [1] was -11.8%, the MFI [1] was 1100 and the “% Blocking” value [2] was -17.3%. The MFI [2] was 1080, the “% Blocking” value [3] was 26.1% and the MFI [3] was 863. For the same binder, the “% Blocking” value [4] was 26.9%, the MFI [4] was 870 and the “% Blocking” value [5] was -41.9%. The “% Positive cells” value [5] was 2.2%, the “% Blocking” value [6] was -38.4% and the “% Positive cells” value [6] was 2.27%. For the same binder, the “% Blocking” value [7] was -27.5%, the “% Positive cells” value [7] was 2.18% and the “% Blocking” value [8] was -19.7%. The “% Positive cells” value [8] was 2.13%, the “% Blocking” value [9] was -8.42% and the “% Positive cells” value [9] was 2.19%. For the same binder, the “% Blocking” value [10] was -14.4%, the “% Positive cells” value [10] was 2.31% and the “% Blocking” value [11] was 53%. The MFI [11] was 417, the “% Blocking” value [12] was 23.7% and the MFI [12] was 608. The “% Blocking” value [13] was 45.9%, the MFI [13] was 502 and the “% Blocking” value [14] was 48.4%. The MFI [14] was 527, the “% Blocking” value [15] was -50.2% and the MFI [15] was 1330. The “% Blocking” value [16] was 46.4%, the MFI [16] was 463 and the “% Blocking” value [17] was 45.2%. The MFI [17] was 471, the “% Blocking” value [18] was 92.6% and the “% Positive cells” value [18] was 0.13%. The “% Blocking” value [19] was 91.2%, the “% Positive cells” value [19] was 0.13% and the “% Blocking” value [20] was 98.5%. The “% Positive cells” value [20] was 0.03%, the “% Blocking” value [21] was 98.9% and the “% Positive cells” value [21] was 0.02%. The “% Blocking” value [22] was 93.4%, the “% Positive cells” value [22] was 0.13% and the “% Blocking” value [23] was 96.9%. The “% Positive cells” value [23] was 0.04%, the “% Blocking” value [24] was 98.5% and the “% Positive cells” value [24] was 0.02%. For the same binder, the “% Blocking” value [25] was 13.1% and the MFI [25] was 585.

B2: AB5 (antibody, V domains shown)
VH: QVQLKESGPGLVQPSQTLSLTCTVSGFSLTSYHVSWVRQPPGKGLEWMGVIWTGGSTTYNSLLKSRLSISRDISKSQVFLKMNSLQTEDTATYYCARGGTVVKGGFAYWGQGTLVTVSS
VL: DIQMTQSPASLSASLEEIVTITCQASQDIGNRLSWYQQKPGKSPQLLIYGATSLADGVPSRFSGSRSGTQYSLKISRLQVEDIGIYYCLQAYSTPLTFGSGTKLEIK
notes: Hybridoma monoclonal; Same VH/VL entries as AB6; also called antibody 5; clone 5
With B2 the “% Blocking” value [1] was 14.8%, the MFI [1] was 840 and the “% Blocking” value [2] was 37.3%. The MFI [2] was 579, the “% Blocking” value [3] was -3.38% and the MFI [3] was 1210. For the same binder, the “% Blocking” value [4] was 5.47%, the MFI [4] was 1120 and the “% Blocking” value [5] was 72.3%. The “% Positive cells” value [5] was 0.43%, the “% Blocking” value [6] was 98.8% and the “% Positive cells” value [6] was 0.02%. The “% Blocking” value [7] was 95.9%, the “% Positive cells” value [7] was 0.07% and the “% Blocking” value [8] was 93.3%. The “% Positive cells” value [8] was 0.12%, the “% Blocking” value [9] was 91.1% and the “% Positive cells” value [9] was 0.18%. The “% Blocking” value [10] was 95.5%, the “% Positive cells” value [10] was 0.09% and the “% Blocking” value [11] was -5.58%. The MFI [11] was 936, the “% Blocking” value [12] was -20.7% and the MFI [12] was 962. For the same binder, the “% Blocking” value [13] was -9.7%, the MFI [13] was 1020 and the “% Blocking” value [14] was -11.3%. The MFI [14] was 1140, the “% Blocking” value [15] was -7.01% and the MFI [15] was 947. For the same binder, the “% Blocking” value [16] was 0.46%, the MFI [16] was 860 and the “% Blocking” value [17] was -1.63%. The MFI [17] was 873, the “% Blocking” value [18] was 12.5% and the “% Positive cells” value [18] was 1.54%. For the same binder, the “% Blocking” value [19] was 5.41%, the “% Positive cells” value [19] was 1.4% and the “% Blocking” value [20] was -6.12%. The “% Positive cells” value [20] was 2.08%, the “% Blocking” value [21] was 0% and the “% Positive cells” value [21] was 1.8%. For the same binder, the “% Blocking” value [22] was 27.8%, the “% Positive cells” value [22] was 1.43% and the “% Blocking” value [23] was -25.4%. For the same binder, the “% Positive cells” value [23] was 1.63%, the “% Blocking” value [24] was -29.5% and the “% Positive cells” value [24] was 1.67%. For the same binder, the “% Blocking” value [25] was -14.2% and the MFI [25] was 769.
